Assay in all cases: purified protein
Common to all, as to conditions: 20 mM Tris-HCl pH 8.5, 50 mM NaCl, 100 µg/ml BSA, 37°C

For data set [1], the system named is Nc1nc2c(ncn2[C@@H]2O[C@H](COP(=O)(O)O[C@H]3[C@@H](O)[C@H](n4ccc(=O)[nH]c4=O)O[C@@H]3CO)[C@@H](OP(=O)(O)OC[C@H]3O[C@@H](n4ccc(=O)[nH]c4=O)[C@H](O)[C@@H]3OP(=O)(O)OC[C@H]3O[C@@H](n4cnc5c(N)ncnc54)[C@H](O)[C@@H]3O)[C@H]2O)c(=O)[nH]1.
The subject of data set [2] is Nc1nc2c(ncn2[C@@H]2O[C@H](COP(=O)(O)O[C@H]3[C@@H](O)[C@H](n4cnc5c(N)ncnc54)O[C@@H]3CO)[C@@H](OP(=O)(O)OC[C@H]3O[C@@H](n4ccc(=O)[nH]c4=O)[C@H](O)[C@@H]3OP(=O)(O)OC[C@H]3O[C@@H](n4cnc5c(N)ncnc54)[C@H](O)[C@@H]3O)[C@H]2O)c(=O)[nH]1.
Data set [3] has as its system Nc1nc2c(ncn2[C@@H]2O[C@H](COP(=O)(O)O[C@H]3[C@@H](O)[C@H](n4ccc(=O)[nH]c4=O)O[C@@H]3CO)[C@@H](OP(=O)(O)OC[C@H]3O[C@@H](n4ccc(=O)[nH]c4=O)[C@H](O)[C@@H]3O)[C@H]2O)c(=O)[nH]1.
Data set [4] deals with Nc1nc2c(ncn2[C@@H]2O[C@H](COP(=O)(O)O[C@H]3[C@@H](O)[C@H](n4ccc(=O)[nH]c4=O)O[C@@H]3CO)[C@@H](OP(=O)(O)OC[C@H]3O[C@@H](n4ccc(=O)[nH]c4=O)[C@H](O)[C@@H]3OP(=O)(O)O)[C@H]2O)c(=O)[nH]1.
Data set [5] deals with Nc1nc2c(ncn2[C@@H]2O[C@H](CO)[C@@H](OP(=O)(O)OC[C@H]3O[C@@H](n4ccc(=O)[nH]c4=O)[C@H](O)[C@@H]3OP(=O)(O)OC[C@H]3O[C@@H](n4cnc5c(N)ncnc54)[C@H](O)[C@@H]3O)[C@H]2O)c(=O)[nH]1.
For data set [6], the system named is Nc1nc2c(ncn2[C@@H]2O[C@H](CO)[C@@H](OP(=O)(O)OC[C@H]3O[C@@H](n4ccc(=O)[nH]c4=O)[C@H](O)[C@@H]3OP(=O)(O)O)[C@H]2O)c(=O)[nH]1.

“E5-CRD (colicin E5 C-terminal ribonuclease domain) (Escherichia coli)”: the Km in data set [1] is on record as 59.5 (18) μM; in data set [2], 90.6 (23) μM; in data set [3], 143 (38) μM; in data set [4] it was 41.3 (16) μM; in data set [5], 53.6 (16) μM; in data set [6], 32.9 (5.5) μM. The kcat in data set [1] was found to be 84.2 s⁻¹; in data set [2], 65.8 s⁻¹; in data set [3], 3.57 s⁻¹; in data set [4] it was 34 s⁻¹; in data set [5], 11.7 s⁻¹; in data set [6], 42.9 s⁻¹. For the same substance, the kcat/Km in data set [1] worked out at 1.41e+06 M⁻¹ s⁻¹; in data set [2], 730000 M⁻¹ s⁻¹; in data set [3] it was 25100 M⁻¹ s⁻¹; in data set [4], 823000 M⁻¹ s⁻¹; in data set [5], 218000 M⁻¹ s⁻¹; in data set [6] it was 1.3e+06 M⁻¹ s⁻¹.

Values taken from paper PMC1635277.
